Assay results as given in patent publication US20200114017A1 (BIONOMICS, published 2020).
Residue numbers refer to the chain shown, from its start.

Tests used:
[1] = target: T1, human LGR5 (leucine-rich repeat containing G-protein-coupled receptor 5) (human, UniProt O75473 22-561); test: cell-based or functional assay
T1 sequence: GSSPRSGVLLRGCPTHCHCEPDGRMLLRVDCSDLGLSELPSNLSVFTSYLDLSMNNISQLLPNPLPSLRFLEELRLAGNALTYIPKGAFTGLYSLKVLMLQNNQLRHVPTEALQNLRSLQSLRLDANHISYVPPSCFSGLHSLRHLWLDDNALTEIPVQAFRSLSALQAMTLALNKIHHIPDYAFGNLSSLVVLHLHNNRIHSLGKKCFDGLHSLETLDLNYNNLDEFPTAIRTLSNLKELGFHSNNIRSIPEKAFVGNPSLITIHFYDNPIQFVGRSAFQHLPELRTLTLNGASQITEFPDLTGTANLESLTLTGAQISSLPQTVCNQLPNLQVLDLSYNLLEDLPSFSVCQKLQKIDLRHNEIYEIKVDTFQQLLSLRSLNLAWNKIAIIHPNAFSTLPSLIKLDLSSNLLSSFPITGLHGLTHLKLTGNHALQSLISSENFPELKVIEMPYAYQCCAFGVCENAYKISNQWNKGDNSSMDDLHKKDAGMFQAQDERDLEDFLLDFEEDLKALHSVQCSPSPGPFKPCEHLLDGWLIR

[2] = target: T1, human LGR5 (leucine-rich repeat …); test: FACS on CHO cells expressing recombinant LGR5

B1: 18G7Ch (antibody, human IgG1, kappa, V domains shown)
VH: QVQLQQSGAELVKPGASVKISCKATGYTFSGYWIEWVKQRPGHGLEWIGEILPGSDSTNYNEKFKGKATFTADTSSNTVYMQFSSLTSEDSAVYYCARSGYYGSSQYWGQGTTLTVSS
VL: NIVLTQSPASLAVSLGQRATISCRASESVDSYGNSFMHWYQQKPGQPPKLLIYLTSNLESGVPARFSGSGSRTDFTLTIDPVEADDAATYYCQQNNEDPRTFGGGTKLEIKR
- IC50 (nM) of cell viability, MTS assay, primary antibody + secondary ADC (NL-MMAF) [1]: 0.115 nM

B2: 18G7H6A1 (antibody, human IgG1, kappa, V domains shown)
VH: EVQLVQSGAEVKKPGESLRISCKGSGYSFTAYWIEWVRQAPGKGLEWIGEILPGSDSTNYNEKFKGHVTISADKSISTAYLQWSSLKASDTAVYYCARSGYYGSSQYWGQGTLVTVSS
VL: B1 VL with N1D, L15P, S22T, A64D, R72G, D80N, D85N, N96A
- EC50 [2]: < 10000 pM
